For the assay, the target named is histidine tagged PSMGFR peptide (MUC1* extra cellular domain). Briefly: SPR, histidine-tagged PSMGFR on 3.8% or 5.7% NTA SAM chip.
Chain of histidine tagged PSMGFR peptide (MUC1* extra cellular domain) (peptide, as listed by the source): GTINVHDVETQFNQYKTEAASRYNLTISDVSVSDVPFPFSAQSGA

Take “NM23-S120G (100% hexamer preparation) (from UniProt P15531 1-152) (ligand)”: the SPR binding response (RUs) came out at 70 RU.

The values are drawn from patent publication US20120156246A1.
